Laboratory results published in PMC4451147.

Assays:
[1] = target: Tubulin purified from lamb brains (sheep (purified from lamb brains)); assay: ITC; stathmin (syringe, 50-200 uM) injected into tubulin (cell, 5-20 uM); no MTA; 37°C; 20 mM NaPi, 4 mM MgCl2, 0.1 mM GTP, pH 6.5; one set of sites model; apparent constants
[2] = target: Tubulin purified from lamb brains (sheep (purified from lamb brains)); assay: ITC; stathmin (syringe) injected into tubulin (cell); vinflunine (10 uM) in cell and syringe; 37°C; 20 mM NaPi, 4 mM MgCl2, 0.1 mM GTP, pH 6.5; one set of sites model; apparent constants

Ka [1]: 2.7e+06 M⁻¹
dH (kcal/mole of stathmin) [1]: -7.5
Ka [2]: 7.8e+06 M⁻¹
dH (kcal/mole of stathmin) [2]: -30
B1: Human recombinant stathmin (natural protein)
chain: MASSDIQVKELEKRASGQAFELILSPRSKESVPEFPLSPPKKKDLSLEEIQKKLEAAEERRKSHEAEVLKQLAEKREHEKEVLQKAIEENNNFSKMAEEKLTHKMEANKENREAQMAAKLERLREKDKHIEEVRKNKESKDPADETEAD
